Measurements taken from patent US20240376454A1 (CORNELL UNIVERSITY, published 2024).

Columns and labels:
[1] = molecular target: T1, Pfu Cas3 HD L139A/HEL V418A (Pyrococcus furiosus, UniProt Q8U336 1-237, limits assumed); assay: Strep-tag pull-down, SDS-PAGE
T1 construct: tags as for m8
T1 sequence 1: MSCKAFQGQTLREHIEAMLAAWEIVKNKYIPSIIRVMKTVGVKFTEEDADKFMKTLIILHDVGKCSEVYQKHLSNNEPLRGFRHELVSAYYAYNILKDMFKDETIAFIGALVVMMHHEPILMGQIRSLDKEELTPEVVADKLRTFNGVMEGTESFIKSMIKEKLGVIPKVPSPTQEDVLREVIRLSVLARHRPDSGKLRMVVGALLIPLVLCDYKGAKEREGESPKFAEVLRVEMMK
T1 sequence 2: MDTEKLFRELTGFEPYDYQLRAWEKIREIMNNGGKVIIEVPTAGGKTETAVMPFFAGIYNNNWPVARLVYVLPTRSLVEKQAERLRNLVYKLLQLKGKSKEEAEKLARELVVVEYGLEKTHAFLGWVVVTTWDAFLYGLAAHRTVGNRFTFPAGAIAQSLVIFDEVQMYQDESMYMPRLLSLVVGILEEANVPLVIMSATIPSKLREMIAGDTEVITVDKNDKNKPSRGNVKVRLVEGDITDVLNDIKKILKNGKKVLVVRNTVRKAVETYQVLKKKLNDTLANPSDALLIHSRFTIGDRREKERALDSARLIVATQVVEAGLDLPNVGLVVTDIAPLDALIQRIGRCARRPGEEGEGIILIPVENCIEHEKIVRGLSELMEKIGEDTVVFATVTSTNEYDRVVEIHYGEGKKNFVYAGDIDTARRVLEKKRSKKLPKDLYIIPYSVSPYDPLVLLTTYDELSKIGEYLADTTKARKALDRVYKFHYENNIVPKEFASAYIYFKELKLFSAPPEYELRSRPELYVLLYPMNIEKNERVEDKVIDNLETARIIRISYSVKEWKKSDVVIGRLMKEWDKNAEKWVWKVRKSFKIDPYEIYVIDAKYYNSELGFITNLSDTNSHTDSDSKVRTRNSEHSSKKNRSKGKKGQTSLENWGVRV
Excerpt: (§1) Binding of Pfu Cas3 effectively eliminates the severe domain movements in Cas8a NTD, and rigidifies the rest of the inner belly subunits in place (FIG. 3A-B). The lockdown effect is achieved through an extensive Cas3-Cas8a interface that spans across the NTD and CTD of Cas8a, which prevents the hinge motion in between the two domains. […] To validate structural observations, we mutagenized three conserved interface residues on Cas3 individually and in combination, two from the HD nuclease (V187E, L139A) and one from the helicase subunit (V418A). In Strep-tag pull-down experiments, each mutation reduced the affinity between Cas3 and Cascade, albeit to various extents. In particular, Cas3 HD V187E and HD L139A/HEL V418A completely disrupted Cas3 interaction with Cascade (FIG. 19). Thus, in embodiments, any Cas3 sequence that is at least 85% similar to a Pfu Cas3 may retain the described wild type amino acids.
(§2) 15 μg of strep-tagged Pfu Cascade and 15 μg of untagged Pfu Cas3 complex were mixed and incubated with 10 μL of strep resin at 4° C. for 30 min in a binding buffer (50 mM HEPES pH7.5, 10% glycerol, 300 mM NaCl), in a total assay volume of 50 μL. […]

[2] = molecular target: T2, Pfu Cas3 HD V187E (Pyrococcus furiosus, UniProt Q8U336 1-237, limits assumed); assay: Strep-tag pull-down, SDS-PAGE
T2 construct: The pull-down method speaks of an 'untagged Pfu Cas3 complex'; also called Cas3 V187E
T2 sequence 1: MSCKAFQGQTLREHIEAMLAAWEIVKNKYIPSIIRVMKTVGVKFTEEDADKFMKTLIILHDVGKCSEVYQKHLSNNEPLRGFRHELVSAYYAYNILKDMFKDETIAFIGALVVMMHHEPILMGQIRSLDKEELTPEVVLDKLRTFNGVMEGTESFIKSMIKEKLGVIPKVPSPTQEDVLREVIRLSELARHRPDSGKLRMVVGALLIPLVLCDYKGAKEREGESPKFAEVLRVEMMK
T2 sequence 2: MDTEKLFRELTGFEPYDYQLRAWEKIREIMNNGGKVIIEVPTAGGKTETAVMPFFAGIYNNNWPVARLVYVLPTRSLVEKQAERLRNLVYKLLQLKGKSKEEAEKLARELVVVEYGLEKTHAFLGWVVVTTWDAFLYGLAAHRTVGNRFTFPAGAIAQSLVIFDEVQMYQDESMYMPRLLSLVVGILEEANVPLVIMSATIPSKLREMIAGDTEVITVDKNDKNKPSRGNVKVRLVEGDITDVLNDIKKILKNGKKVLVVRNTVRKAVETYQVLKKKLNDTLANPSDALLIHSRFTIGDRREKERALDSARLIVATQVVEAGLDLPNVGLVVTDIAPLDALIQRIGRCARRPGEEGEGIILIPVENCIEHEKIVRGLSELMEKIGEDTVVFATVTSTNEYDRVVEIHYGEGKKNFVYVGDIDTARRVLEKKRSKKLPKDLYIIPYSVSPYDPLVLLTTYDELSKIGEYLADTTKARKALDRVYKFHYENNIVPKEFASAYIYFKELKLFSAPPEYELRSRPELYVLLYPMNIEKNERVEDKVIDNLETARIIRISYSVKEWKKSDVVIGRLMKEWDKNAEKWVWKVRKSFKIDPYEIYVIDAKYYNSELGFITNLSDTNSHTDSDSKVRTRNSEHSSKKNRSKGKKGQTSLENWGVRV
Excerpt: as §1, §2

B1: Pfu Cascade (other)
chain 1: not shown
chain 2: MDILLVCLRFPFFSVAKRSYQVRTSFLLPPPSALKGALAKGLILLKPEKYASSSLDEAALKAIKEIESKLVDIKAVSVAPLSPLIRNAFLLKRLRNLESGSNAEKSDAMRREYTFTRELLVAYIFKNLTQEEKNLYLKAAMLIDVIGDTESLATPVWASFVKPEDKKAPLAFSAPYTEIYSLLSSKIQAKGKIRMYIEKMRVSPEYSKTKGPQEEIFYLPIEERRYKRIVYYARTIYPPEVEKALTVDGEVLGIWIPKNSSESGSHHHHHHH
chain 3: MMYVRISGRIRLNAHSLNAQGGGGTNYIEITKTKVTVRTENGWTVVEVPAITGNMLKHWHFVGFVDYFKTTPYGVNLTERALRYNGTRFGQGETTATKANGATVQLNDEATIIKELADADVHGFLAPKTGRRRVSLVKASFILPTEDFIKEVEGERLITAIKHNRVDVDEKGAIGSSKEGTAQMLFSREYATGLYGFSIVLDLGLVGIPQGLPVKFEENQPRPNIVIDPNERKARIESALKALIPMLSGYIGANLARSFPVFKVEELVAIASEGPIPALVHGFYEDYIEANRSIIKNARALGFNIEVFTYNVDLGEDIEATKVSSVEELVANLVKMVGGKE
chain 4: MGGWIRNIGRYLSYLVDDTFEEYAYDVVDGIAKARTQEELLEGVYKALRLAPKLKKKAESKGCPPPRIPSPEDIEALEEKVEQLSNPKDLRKLAVSLALWAFASWNNCPKKGKGTEGGVE
notes: Ribonucleoprotein complex that also holds the chimeric crRNA (Pfu 5'-handle, E. coli 3'-handle); also called I-A Pfu Cascade; apo Pfu Cascade
- binding result [1]: no binding
- binding result [2]: no binding
